According to PMC10479434:

How the values were obtained:
[1] = target: α-synuclein (wild type) (UniProt P37840)
[2] = target: α-synuclein (wild type) (UniProt P37840); remark: listed apart in the source

HtrA1ΔNTD (residues 156–480), sequence (Q92743 156-480, stated change not applied): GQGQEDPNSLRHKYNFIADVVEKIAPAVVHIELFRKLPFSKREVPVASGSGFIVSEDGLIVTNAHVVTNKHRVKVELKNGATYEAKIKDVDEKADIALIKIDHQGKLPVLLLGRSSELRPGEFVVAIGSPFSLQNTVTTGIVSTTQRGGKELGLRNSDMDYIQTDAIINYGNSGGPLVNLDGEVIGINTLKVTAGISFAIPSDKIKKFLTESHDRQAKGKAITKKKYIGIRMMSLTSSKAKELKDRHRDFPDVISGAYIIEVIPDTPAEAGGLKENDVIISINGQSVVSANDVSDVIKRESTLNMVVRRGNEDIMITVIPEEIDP

sedimentation assay, α-syn (25 μM) with HtrA1 (5 μM), 24–72h: share of α-syn in the insoluble fraction (HtrA1 itself stays soluble with α-syn) (% of α-syn insoluble) [1]: < 10
ThT fluorescence of α-syn (25 μM) fibrillized with HtrA1 (5 μM) for 48h, relative to the signal without HtrA1 (% of the ThT signal without HtrA1) [2]: 20
Substance: HtrA1ΔNTD (residues 156–480) (from UniProt Q92743 156-480) (domain or fragment)
